Results published in patent US20030203372A1, “Analysis method” (priority 2000, published 2003).

Tests used:
[1] = system: primary human cell cultures (11 cell types); test: Custom gene array, 11 human cell types in normoxia or hypoxia for 6 hr and 18 hr; assay type: cell-based; details: for mRNA expression level, #1 HY 6 hr: cell type #1, hypoxia 6 hr; for mRNA expression level, #1 HY 18 hr: cell type #1, hypoxia 18 hr; for mRNA expression level, #1 NO: cell type #1, normoxia; for mRNA expression level, #2 HY 6 hr: cell type #2, hypoxia 6 hr; for mRNA expression level, #2 HY 18 hr: cell type #2, hypoxia 18 hr; for mRNA expression level, #2 NO: cell type #2, normoxia; for mRNA expression level, #3 HY 6 hr: cell type #3, hypoxia 6 hr; for mRNA expression level, #3 HY 18 hr: cell type #3, hypoxia 18 hr; for mRNA expression level, #3 NO: cell type #3, normoxia; for mRNA expression level, #4 HY 6 hr: cell type #4, hypoxia 6 hr; for mRNA expression level, #4 HY 18 hr: cell type #4, hypoxia 18 hr; for mRNA expression level, #4 NO: cell type #4, normoxia; for mRNA expression level, #5 HY 6 hr: cell type #5, hypoxia 6 hr; for mRNA expression level, #5 NO: cell type #5, normoxia; for mRNA expression level, #6 HY 6 hr: cell type #6, hypoxia 6 hr; for #6 HY 18 hr (mRNA expression level): cell type #6, hypoxia 18 hr; for mRNA expression level, #6 NO: cell type #6, normoxia; for #7 HY 6 hr (mRNA expression level): cell type #7, hypoxia 6 hr; for #7 HY 18 hr (mRNA expression level): cell type #7, hypoxia 18 hr; for #7 NO (mRNA expression level): cell type #7, normoxia; for #8 HY 6 hr (mRNA expression level): cell type #8, hypoxia 6 hr; for #8 HY 18 hr (mRNA expression level): cell type #8, hypoxia 18 hr; for #8 NO (mRNA expression level): cell type #8, normoxia; for #9 HY 6 hr (mRNA expression level): cell type #9, hypoxia 6 hr; for #9 HY 18 hr (mRNA expression level): cell type #9, hypoxia 18 hr; for #9 NO (mRNA expression level): cell type #9, normoxia; for #10 HY 6 hr (mRNA expression level): cell type #10, hypoxia 6 hr; for #10 HY 18 hr (mRNA expression level): cell type #10, hypoxia 18 hr; for #10 NO (mRNA expression level): cell type #10, normoxia; for #11 HY 6 hr (mRNA expression level): cell type #11, hypoxia 6 hr; for #11 HY 18 hr (mRNA expression level): cell type #11, hypoxia 18 hr; for #11 NO (mRNA expression level): cell type #11, normoxia; for HIGHEST FOLD CHANGE IN HYPOXIA (hr hypoxia + cell type): hypoxia/normoxia induction ratio;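 for mRNA expression level, #1 HY 18 hr: cell type #1 is adipocyte from subcutaneous adult adipose tissue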;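 for mRNA expression level, #1 HY 6 hr: cell type #1 is adipocyte from subcutaneous adult adipose tissue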;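 for mRNA expression level, #1 NO: cell type #1 is adipocyte from subcutaneous adult adipose tissue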;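 for mRNA expression level, #2 HY 18 hr: cell type #2 is fetal cardiomyocyte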;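 for mRNA expression level, #2 HY 6 hr: cell type #2 is fetal cardiomyocyte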;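 for mRNA expression level, #2 NO: cell type #2 is fetal cardiomyocyte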;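 for mRNA expression level, #3 HY 6 hr: cell type #3 is human umbilical vein endothelial cells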;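 for mRNA expression level, #3 NO: cell type #3 is human umbilical vein endothelial cells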;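 for mRNA expression level, #4 HY 18 hr: cell type #4 is adult dermal fibroblast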;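 for mRNA expression level, #4 HY 6 hr: cell type #4 is adult dermal fibroblast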;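 for mRNA expression level, #4 NO: cell type #4 is adult dermal fibroblast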;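 for mRNA expression level, #5 HY 6 hr: cell type #5 is adult hepatocyte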;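 for mRNA expression level, #5 NO: cell type #5 is adult hepatocyte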;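 for mRNA expression level, #6 HY 6 hr: cell type #6 is blood-derived macrophage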;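 for mRNA expression level, #6 NO: cell type #6 is blood-derived macrophage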
Method in brief: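 Values are each gene's expression relative to its median over all cell types and conditions, after per-array normalisation to control genes and merging of replicate arrays. Cells were 11 human types, mostly unmodified primary cultures, kept in normoxia or exposed to hypoxia for 6 hr or 18 hr.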

[2] = system: human macrophages; test: Custom gene array, macrophages with no cytokines, IL-10 or LPS + IFN, in normoxia and hypoxia; assay type: cell-based; details: for mRNA EXPRESSION (experimental condition) #1: #1 no cytokines/normoxia; for mRNA EXPRESSION (experimental condition) #2: #2 no cytokines/hypoxia; for mRNA EXPRESSION (experimental condition) #3: #3 IL-10/normoxia; for mRNA EXPRESSION (experimental condition) #4: #4 IL-10/hypoxia; for mRNA EXPRESSION (experimental condition) #5: #5 LPS/IFN/normoxia; for mRNA EXPRESSION (experimental condition) #6: #6 LPS/IFN/hypoxia
Experimental: Macrophages were derived and cultured as described elsewhere in the specification. A total of 6 experimental conditions were analysed, as shown below. Where cells were treated with cytokines or hypoxia (0.1% oxygen), this was for 6 hr. Lipopolysaccharide (LPS) (from E.coli 026:B6; Sigma), gamma Interferon (IFN) and Interleukin-10 (IL-10) were all used at a final concentration of 100 ng/ml. The effect of gamma Interferon and Lipopolysaccharide is to activate macrophages, with a Th1 biased phenotype, as found in many inflammatory conditions. Interleukin-10 is a Th2 cytokine and de-activates macrophages, and suppresses their effector functions.

[3] = Table 16, referenced to median of the gene over 6 conditions
[4] = Table 15, referenced to the median value of that gene throughout all 6 conditions

B1: p1E1 (nucleic acid, listed as Homo Sapiens)
DNA: TTTTGGTCTGAGAATGATGGACATTTAGACACTGGCGCCAGGTTTGCGCTGGACCGGCGCACGCAGGGGTTGGGCGGACGAAAGACACACAGGTGGGCTACAGGTGTCACACGGCACCAGCCAGGGCCCGGGGTGGCTGGGGTGAGGATGGGTGTTTGGCCAGTGACCAGGAGTCAGGTCAAGTCCAGGTGGTCAGTGCCAGGGGTCCCAGGAGGGGAGGGCAGTGCATTAACCCTCCTGGTGTCCAGCGTCACCAGGCGGTCGTCACAGAAAGCAACCTCGGCCCGGGGCCG
modifications: EST array clone
mRNA expression level, #1 HY 6 hr [1]: 1.31 | mRNA expression level, #1 HY 18 hr [1]: 2.14 | mRNA expression level, #1 NO [1]: 2.91 | mRNA expression level, #2 HY 6 hr [1]: 6.21 | mRNA expression level, #2 HY 18 hr [1]: 2.25 | mRNA expression level, #2 NO [1]: 3.07 | mRNA expression level, #3 HY 6 hr [1]: 2.11 | mRNA expression level, #3 HY 18 hr [1]: 1.28 | mRNA expression level, #3 NO [1]: 1.08 | mRNA expression level, #4 HY 6 hr [1]: 1.01 | mRNA expression level, #4 HY 18 hr [1]: 1.21 | mRNA expression level, #4 NO [1]: 1.02 | mRNA expression level, #5 HY 6 hr [1]: 0.80 | mRNA expression level, #5 NO [1]: 0.56 | mRNA expression level, #6 HY 6 hr [1]: 1.16 | #6 HY 18 hr (mRNA expression level) [1]: 1.25 | mRNA expression level, #6 NO [1]: 0.64 | #7 HY 6 hr (mRNA expression level) [1]: 0.42 | #7 HY 18 hr (mRNA expression level) [1]: 0.29 | #7 NO (mRNA expression level) [1]: 0.29 | #8 HY 6 hr (mRNA expression level) [1]: 0.47 | #8 HY 18 hr (mRNA expression level) [1]: 0.91 | #8 NO (mRNA expression level) [1]: 0.28 | #9 HY 6 hr (mRNA expression level) [1]: 1.24 | #9 HY 18 hr (mRNA expression level) [1]: 0.88 | #9 NO (mRNA expression level) [1]: 1.03 | #10 HY 6 hr (mRNA expression level) [1]: 0.61 | #10 HY 18 hr (mRNA expression level) [1]: 0.60 | #10 NO (mRNA expression level) [1]: 0.32 | #11 HY 6 hr (mRNA expression level) [1]: 4.39 | #11 HY 18 hr (mRNA expression level) [1]: 2.33 | #11 NO (mRNA expression level) [1]: 3.03 | HIGHEST FOLD CHANGE IN HYPOXIA (hr hypoxia + cell type) ([1]; 6 hr cardiomyocyte): 3.24 (6 hr cardiomyocyte) fold | mRNA EXPRESSION (experimental condition) #1 [2, 3]: 1.21 | mRNA EXPRESSION (experimental condition) #2 [2, 3]: 1.64 | mRNA EXPRESSION (experimental condition) #3 [2, 3]: 0.94 | mRNA EXPRESSION (experimental condition) #4 [2, 3]: 1.35 | mRNA EXPRESSION (experimental condition) #5 [2, 3]: 0.51 | mRNA EXPRESSION (experimental condition) #6 [2, 3]: 0.63

B2: p1F6 (nucleic acid, listed as Homo Sapiens)
DNA: GTCCATCTTGCTGCTGTCCACTTTGGGTTCCATCTTGGGCTCCATCTTGCTCTCACGATTAAAAGCTTCTTTCCTGCTTTCCCCATTCCGACCATCATTTGCACCCCGGTTCTCCCCATGCCGGCCTGCGCTTCCTCCATGTCTGTTCTCCCCGTGCCGATGGCCATCAGTATGACGGCTGCTGCTTTCTGGATGGCGGTATCCATCTCCATGGCGACCACCATCTCCGTGACGTGGACTATCGCTATGCCGATTGCCAGTCTCTCCGTGACTGTGACGGCTGCTGCCCCGGTTCTCAGTATATCTCTCTCTTTTCCCGTTGCTGCCCCCAGTCCCTTCTCGGCTGTTATTCCCTGAAGCTGTGTTGTTGACTCCTTGGGCTCCGGCAGACGGGTAGGTCACAGGGGCACCACTGATGTTGCCAGTATTGCCAAAGCCTGGGATGCCCTTGGCGGCACTGGTGACGGGGCTGTCAGGACTGTTATGGCCCTGTTGTGCTGAGTTAGTTGGAACAGAATTCAAGCTCCCTGCACTAGTCCACCTGCCCCACTGCTTCTTCGCTTCTCTCTTGGAAAGTCCAGTCTCTCCTCGGCTTGCAATGGACCCCAACTGCTCCTGCGCCGCTGGTGTCTCCTGCACCTGCGCTGGTTCCTGCAAGTGCAAAGAGTGCAAATGCACCTCCTGCAAGAAGAGCTGCTGCTCCTGCTGCCCCGTGGGCTGTAGCAAGTGTGCCCAGGGCTGTGTTTGCAAAGGGGCGTCAGAGAAGTGCAGCTGCTGCGACTGATGCCAGGACAACCTTTCTCCCAGATGTAAACAGAGAGACATGTACAAACCTGGATTTTTTTTTTATACCACCTTGACCCATTTGCTACATTCCTTTTCCTGTGAAATATGTGAGTGATAATTAAACACTTTAGACCTGAAAAAAAAAAAAAAAAAAAAAAAAAAAAAAAAAAAAAAAAAAAAAAAAAAAAAAAAAAAAAAAAAAAAAAAAAAAAAAAAAAAAAAAAAAAAAAAAAAAAAAAAAAAAAAAAAAAAAAAAAAAAAAAAAAAAAAAAAAAAAAAAAAAAA
HIGHEST FOLD CHANGE IN HYPOXIA (hr hypoxia + cell type) ([1]; 18 hr monocyte): 67.4 (18 hr monocyte) fold | mRNA EXPRESSION (experimental condition) #1 [2, 4]: 0.44 | mRNA EXPRESSION (experimental condition) #2 [2, 4]: 1.08 | mRNA EXPRESSION (experimental condition) #3 [2, 4]: 0.47 | mRNA EXPRESSION (experimental condition) #4 [2, 4]: 1.06 | mRNA EXPRESSION (experimental condition) #5 [2, 4]: 1.11 | mRNA EXPRESSION (experimental condition) #6 [2, 4]: 2.47

B3: p1D24 (nucleic acid, listed as Homo Sapiens)
DNA: TTCTATCAGAAATTGTATTTATTTACCAGCATTTATGGCAAATGGCCAGACCTGGGCAGGGTGGTAGCAATGATAGATTTTACAAATTAAGGCATTGTTCTTTATTTCAAANTTTTCATTTACCNATATTTTCCTTGGTCTTAGAAATATGAATANTTTAGAGCTGGCAATACTCACCATCAGGATATAATAAACGGAGGTTTCTTTNTCCGAAATCCATAAANTGTAGTANTACTCTNTTGTACTTTTAAAATTCCNATTTTTGCAGTNGGCTTCCTCTCAGTGATTTAGTTAGGNAGTTTTGGTACATTTTGGNGGGGTCATAAACATGTTCATAGGATAGGAGTACNGGGCATTTNTGGAAAAACCCG
modifications: EST array clone; misc_feature 112, 125, 156, 208, 224, 232, 239, 258, 270, 297, 316, 350,359: n = A,T,C or G
mRNA expression level, #1 HY 6 hr [1]: 0.71 | mRNA expression level, #1 HY 18 hr [1]: 1.39 | mRNA expression level, #1 NO [1]: 0.98 | mRNA expression level, #2 HY 6 hr [1]: 1.98 | mRNA expression level, #2 HY 18 hr [1]: 2.16 | mRNA expression level, #2 NO [1]: 1.55 | mRNA expression level, #3 HY 6 hr [1]: 1.47 | mRNA expression level, #3 HY 18 hr [1]: 1.01 | mRNA expression level, #3 NO [1]: 1.18 | mRNA expression level, #4 HY 6 hr [1]: 0.49 | mRNA expression level, #4 HY 18 hr [1]: 0.67 | mRNA expression level, #4 NO [1]: 0.74 | mRNA expression level, #5 HY 6 hr [1]: 1.94 | mRNA expression level, #5 NO [1]: 1.53 | mRNA expression level, #6 HY 6 hr [1]: 0.98 | #6 HY 18 hr (mRNA expression level) [1]: 0.96 | mRNA expression level, #6 NO [1]: 0.90 | #7 HY 6 hr (mRNA expression level) [1]: 0.79 | #7 HY 18 hr (mRNA expression level) [1]: 0.49 | #7 NO (mRNA expression level) [1]: 0.71 | #8 HY 6 hr (mRNA expression level) [1]: 0.90 | #8 HY 18 hr (mRNA expression level) [1]: 0.93 | #8 NO (mRNA expression level) [1]: 0.53 | #9 HY 6 hr (mRNA expression level) [1]: 0.51 | #9 HY 18 hr (mRNA expression level) [1]: 0.43 | #9 NO (mRNA expression level) [1]: 0.81 | #10 HY 6 hr (mRNA expression level) [1]: 10.9 | #10 HY 18 hr (mRNA expression level) [1]: 11.79 | #10 NO (mRNA expression level) [1]: 4.63 | #11 HY 6 hr (mRNA expression level) [1]: 2.23 | #11 HY 18 hr (mRNA expression level) [1]: 1.65 | #11 NO (mRNA expression level) [1]: 1.85 | HIGHEST FOLD CHANGE IN HYPOXIA (hr hypoxia + cell type) ([1]; 18 hr renal epithelial): 2.55 (18 hr renal epithelial) fold | mRNA EXPRESSION (experimental condition) #1 [2, 4]: 0.58 | mRNA EXPRESSION (experimental condition) #2 [2, 4]: 0.71 | mRNA EXPRESSION (experimental condition) #3 [2, 4]: 1.00 | mRNA EXPRESSION (experimental condition) #4 [2, 4]: 1.32 | mRNA EXPRESSION (experimental condition) #5 [2, 4]: 1.56 | mRNA EXPRESSION (experimental condition) #6 [2, 4]: 2.59
